Results published in publication PMC3089914, “Structural Basis of the 9-Fold Symmetry of Centrioles” (Cell, 2011).
Residue numbers refer to the chain shown, from its start. Names may count otherwise. One block for each molecule: values may come before it.

Legend:
[1] = molecular target: C. reinhardtii Bld12p crN-6HR fragment with F145E (crN-6HR[F145E]) (C. reinhardtii); experiment: AUC; sedimentation velocity, 20°C, 150 μM protein; 20 mM Tris-HCl pH 7.5, 150 mM NaCl, 2 mM TCEP, 1% glycerol
[2] = molecular target: C. reinhardtii Bld12p crN-6HR fragment with F145E (crN-6HR[F145E]) (C. reinhardtii); experiment: SEC-MALS; S-200 analytical size exclusion column in line with light scattering and refractive index detectors; PBS with 1 mM DTT; samples of 2-4 mg/ml
[3] = molecular target: C. reinhardtii Bld12p crN-6HR fragment with F145E (crN-6HR[F145E]) (C. reinhardtii); experiment: dilution series monitored by CD at 222 nm; 20°C, samples reduced with DTT; fit to a two-state association (monomer-dimer) model; dimer to monomers
[4] = molecular target: C. reinhardtii Bld12p N-terminal domain fragment (crN, residues 1-159) (C. reinhardtii); experiment: ITC; dilution: crN at high concentration (1.0-1.6 mM) injected stepwise into buffer; 7°C; 12 mM HEPES pH 7, 100 mM NaCl, 0.7 mM βMe; dimer to monomers
[5] = molecular target: the molecule itself; experiment: crystal structure; X-ray crystallography; sitting drop vapor diffusion
[6] = molecular target: the molecule itself; experiment: ITC; dilution: 1.6 mM ceN injected stepwise into buffer; 7°C; 20 mM sodium phosphate pH 7, 100 mM NaCl, 1 mM DTT; dimer to monomers
[7] = molecular target: the molecule itself; experiment: AUC; sedimentation velocity, 20°C, 300 μM protein; 20 mM Tris-HCl pH 7.5, 150 mM NaCl, 2 mM TCEP, 1% glycerol
[8] = molecular target: the molecule itself; experiment: AUC; sedimentation velocity, 20°C, 200 μM protein; 20 mM Tris-HCl pH 7.5, 150 mM NaCl, 2 mM TCEP, 1% glycerol
[9] = molecular target: the molecule itself; experiment: SEC-MALS; S-200 analytical size exclusion column in line with light scattering and refractive index detectors; PBS with 1 mM DTT; samples of 2-4 mg/ml
[10] = molecular target: the molecule itself; experiment: dilution series monitored by CD at 222 nm; 20°C, samples reduced with DTT; fit to a two-state association (monomer-dimer) model; dimer to monomers

stoichiometry N [1]: 2
stoichiometry N [2]: 2
Kd [3]: 0.5 µM
Molecule: C. reinhardtii Bld12p crN-6HR fragment with F145E (crN-6HR[F145E]) (domain or fragment)

Kd [4]: 60 µM
Molecule: C. reinhardtii Bld12p N-terminal domain fragment (crN, residues 1-159) (domain or fragment)

B1: C. elegans SAS-6 N-terminal domain fragment with S123E (ceN[S123E]) (domain or fragment, UniProt O62479 1-168, looked up)
chain: MTSKIALFDQTLIASLLQPLSLNQPDFKAYKTKVKLKISEQRNETSGEKELKFEISRSDDFEFLFSETLNNEKYQILARDHDLTVDFDAFPKVIIQHLLCKNIVKNLEEDGEVDARKKAGYHEIADPGKPTEINIILDAEKNFCSFELFSKTPISKGKIFSIKLHAVR
notes: SAS-6, C. elegans, Uniprot ID O62479, N-terminal domain, residues 1-168, Ser123 mutated to glutamate; The crystallised variant; Two molecules in the asymmetric unit; also called ceN variant; ceN-dimer; source: recombinant, purified, crystallised; preparation of the variant not described
binding result [5]: binds

B2: C. elegans SAS-6 N-terminal domain fragment (ceN, residues 1-168) (domain or fragment, UniProt O62479 1-168, looked up)
chain: B1 chain with E123S
notes: SAS-6, C. elegans, Uniprot ID O62479, N-terminal domain, residues 1-168; Cloned in a modified pET15b vector; His6-tag removed by thrombin; source: E. coli BL21 gold (DE3), purified (Ni-NTA, size exclusion chromatography); not shown: His6, N-terminal, cleaved
Kd [6]: ~110 µM
stoichiometry N [7]: 2

B3: C. elegans SAS-6 N terminus plus coiled coil fragment (ceN-CC, residues 1-414) (domain or fragment, UniProt O62479 1-414, looked up)
chain: MTSKIALFDQTLIASLLQPLSLNQPDFKAYKTKVKLKISEQRNETSGEKELKFEISRSDDFEFLFSETLNNEKYQILARDHDLTVDFDAFPKVIIQHLLCKNIVKNLEEDGEVDARKKAGYHSIADPGKPTEINIILDAEKNFCSFELFSKTPISKGKIFSIKLHAVRGDHLISHLLKICSSQAVKLSTFYKSADELASLRQKCGDLEKQVEKLSGVKEEFEEMSEKFKELEDEVELVKEERENIRLLVEDKEDEVADLKQDTESLQKQLEENQEELEIVGNMLREEQGKVDQLQKRNVAHQKEIGKLRAELGTAQRNLEKADQLLKRNSQQQNQQSLDMRKLGELEADLKEKDSMVESLTETIGILRKELENEKLKAAENMDSFEKLSMENENLKEKIAHYRAQRFSPAPSGL
notes: SAS-6, C. elegans, Uniprot ID O62479, N terminus plus coiled coil, residues 1-414; A His6 form from pET30a was used for electron microscopy only; source: E. coli BL21 gold (DE3), purified (glutathione sepharose, eluted by prescission protease, dialysis); not shown: GST, N-terminal, cleaved
binding result [8]: binds

B4: C. elegans SAS-6 N terminus plus coiled coil fragment with I154E (ceN-CC[I154E]) (domain or fragment, UniProt O62479 1-414, looked up)
chain: B3 chain with I154E
notes: SAS-6, C. elegans, Uniprot ID O62479, residues 1-414, I154 exchanged by glutamate; source: preparation of the mutant not described
stoichiometry N [8]: 2

B5: C. elegans SAS-6 coiled-coil domain fragment (ceCC, residues 181-408) (domain or fragment, UniProt O62479 181-408, looked up)
chain: SSQAVKLSTFYKSADELASLRQKCGDLEKQVEKLSGVKEEFEEMSEKFKELEDEVELVKEERENIRLLVEDKEDEVADLKQDTESLQKQLEENQEELEIVGNMLREEQGKVDQLQKRNVAHQKEIGKLRAELGTAQRNLEKADQLLKRNSQQQNQQSLDMRKLGELEADLKEKDSMVESLTETIGILRKELENEKLKAAENMDSFEKLSMENENLKEKIAHYRAQRFS
notes: SAS-6, C. elegans, Uniprot ID O62479, coiled coil, residues 181-408; Cloned in pET15b; His6-tag removed by thrombin; Monomer mass 27.4 kDa as printed; also called SAS-6 ceCC; source: recombinant, bacteria; not shown: His6, N-terminal, cleaved
stoichiometry N [9]: 2
Kd [10]: 0.9 ± 0.1 µM
